A short description of this series: label from the status in PepcDB records.

As for “MLKRASFVEVDTASLRHNFSAVKSIVPKDACVMAVVKANAYGAGAIKASEIFLQEGANYLGVATLDEALELRSHFSKTPILILGYSPNANASMLVDNDLSAMIFSLEQAEVFSQMALKSQKRLKVHIKIDTGMHRLGLEPNFKSIETIKKIRALKGLEIEGIFTHLSNADAKIKTHAKNQMKAFNAFLEQLLDQKIEFQYRHAYNSAGILSLCNGNENRLLNLYRPGIMLYGFYPSNGMKESCPTILKNVISLKAQIVQIRSVKKGEFIGYGEHFYTNEETLVGVLALGYADGLMRALGNRIQVAINNQLAPLIGKVCMDQCFVKLNNIQAKEGDEVILFGDKSAKANDASEIXALLNTIAYETISTLSKRLERVYI”, the protein production entry was “failed”. Under “MLKTSALAPCGKPMLIWPSQTSARRHGFSEASYCLWRSKFGGMSMPDAKRLKDLEAENTRLKKLLAEQVFQNDLIKDALQKMVSAPARRALVREWIAGGASERCALAAIGMSASALRYRPREDRNVELRERILALAHRHRRYGVGMISLKLRQEGRLVNYKRVERLYCEQQLQVRRRKRKKVPLGERAPLLRPTKANPVWSMDVVFDRTAEGRAIKCLVIVDDATHEAVAIDVERAISGHGVVRVLDRLAHSRGLPKMIRTDNGKEFCGKAMVAWAHANRVQLRQIQPGKPNQNAYVESFNGRLRDECLNKHGFPTLLHARTEIERWRREYNEHRPKKTIGGMTPAAYAQQLANSDIINPGL” stands “failed”. As for “MLKTTKKSLLVFMGVFFLIFGVDQAIKYAILEGFRYESLMIDIVLVFNKGVAFSLLSFLEGGLKYLQILLILGLFIFLMRQRELFKNHAIEFGMVFGAGVSNVLDRFVHGGVVDYVYYHYGFDFAIFNFADVMIDVGVGVLLLKQFFFKQKQNKIKA”, the protein production result is “failed”. Under “MLKTVHQKAGRHTRPVRAWLKLLWQRIDEDNMTTLAGNLAYVSLLSLVPLIAVVFALFAAFPMFSDVSIQLRHFIFANFMPATGDVIQRYIEQFVANSNKMTAVGACGLIVTALLLMYAIDSALNTIWRSKRTRPKVYSFAVYWMILTLGPLLAGASLAISSYLLSLRWASDLNTVIDNVLRILPLLLSWISFWLLYSIVPTTRVPNRDALVGAFVAALLFEAGKKGFALYITMFPSYQLIYGVLAVIPILFVWVYWTWCIVLLGAEITVTLGEYRKLKQAAEQEEADQP” stands “failed”; under “MLKTVKLYARKAWNWLTSMRTALALLFLLAIAAIPGALLPQRSLNESNVIEYIENNGKLAEFYDKIQLFDVFSSTWFTAIYVLLLISLVGCILPRSWEHYKAMRAPVVRAPRNLERLAHNGEGLVEKREEEVEKDARKLLKGWKITEYSAEEDRAGVRSIAAEKGYTRELFNLIFHLGIVGMIVTAGLGRLFYYEGHVIVVTDGEQNQQNSVFCNTATANYDSFRAGANFDGTGLTTFCFEAHDFSADYLANGQAEMFRSNISYAVGDDIQNDPETWEDYELRVNHPLRIEGDRVYLQGHGFAPTFTVTWPNGETRTQTVQWRPDDPTFFLSSGVVRFDPPAGMYPDLYERRQNQLAIQGLFAPTAEWEGDNNELLTSSYPAMRDPAVAIDIYRGDNGLDTGIGQSLFSLDSSLMHSGVLQKIERVNLQIGDTVTLDDGTTVSFDGASEFANYQISRDPTQNWVLVTTVISLVSLVGSLMIRRRRIWVRFYPQENGTTRVETGGLARTDRAGWGGEYEKFHRELLGLKEEDEDEEYFDHDD”, “failed”; under “MLKVFAMEMKDAKLYGGIGAILQLVGPFVPSIGFILALVGLVLVFLAVKTISEKSGDEGIFNNYLKAFIAQILGIIIFVGIIVATIGTAILKGGMGKLANPMEFMSLIGTILLGFIILWIFYTVAGYFKKKSYENSQYTGTDMFKTAGLLFFIGAILIILGIGVLIILIAEILEIVAFFSLPETSESAPVSA”, “failed”.

With “MLKVSVITACFNSEKTIEDTILSVLHQTYKNIEYIIIDGASTDSTLEIIQKHRDKIACVMSEKDEGIYDAMNKGIKRSSGDIIALLNSDDFYKDEFVVEKVVHEFERKNCDSVYADLVFVKPDCLEKVVRYYEIGEFNPKTLLYGVVPAHPTLFVKKAIYERYGLYKTDYKISADFEMIIRLFVVQKISFSYLKEVLVVMRTGGVSASGFKSLLLRNKENIRACKENGIQANVFSMLLKYPRKIMGLFKRGKGGLKRND”, the protein production result is given as “failed”. Then “MLKYSMHLNIILLEASLELVPKEIVNHPAVIKNAKRRNKKPEDTLLDISLHYHAMKYLENSHKRGRPDILHQALLVILTDPVIKGDIFIHTIQSKIIKVNPNMRPPKNYLRFIGLMEQLLKYGKIPINGDETLMEVTNLTLDNIVNRYDLILLSEKGEKINPEEICKLDEKWLLGIGAFPHGDFSDKILNLAKKIYSISGFPLETQQVLCRIFSACNSILGWPLEHHHHHH”, with “failed”; and “MLLAVEGGGLFSASASGYSKGLTLLFSGDKDVDRPMRVVPWNHYQVVDQEPEADPVLQLDSIKNRVSRGCAASFSCFGGASAGLETPSPLKVEPVQQQHREISSPESVVVVSEKGKDQISEADNGSSKEAFKLSLRSSLKRPSVAESRSLEDIKEYETLSVDGSDLTGDMARRKVQWPDACGSELTQVREFEPRYV”, with “failed”; and “MLLEDRILKKWLLPFILSVLIAVDSMAQCIPVYKDSSMSVERRVTDLLGRMTLREKIAQLSHLHGYQLYNGQEVDYQKLRDAAGDISYGCIEGFNLTGENVRKAFHAIQKYMVEETRLGIPVFTVTESLHGSVHDGSTIFPQSVAVGSTFNLDLAYQMTKAIATELRSQGVIQTLSPGLDVVRDLRWGRVEESFGEDPWLVGQMGIAQVKGYIDGGISPMLKPFGPGGAPLGGLNLASVESGERDIRNIHIKPYEMAVRNTEVKAVMTSYNSWNGIPNSASSYLLTNILRNEWGFKGYVYSDWGAVAMLKDFQHTAKDDSEAAIQALTAGVDLEASSNCYWALEQLIEQGRFDEKYVDLAVGRILRVKFELGLFENPYQGADMPGVAMRTKEAVELSRRVADESIVLLKNENTLLPLNLNKIKSLAVIGPNANQVQFGDYTWSRSNKDGVTPLEGLKKRVGNKIKINYAAGCDLITDNKSGFDEAVAAVKASDMAVVFVGSSSASLARDYSDATCGEGFDLSSLDLTGVQEELVEEIYAIGKPVIVVLVTGKPFSISWIKEHIPAIVVQWYGGEKAGDAIADMLLGNINPSAKLPFSFPQSVGHLPVFYNHLPTDKGFYRRPGRPNEPGRDYVFSSPAPLWSFGHGLSYTTFEYLNAHYSAELLHPSDTLIVSVSLKNTGSVAGKEVVQLYVRDVVSSVVTPVKQLKAFSKPFLQPGEMQTVVLKLPIQELALYDLSMKKVVEEGEYEIQIGTASDDIRLRRTIFVGRQPVTSNSLGHNDFCMDEIVKNPGRKIKVAGCVRDVQATPISGIEIKSNYSGRTVISKEGGRYSILTVENDVLTVSAKGFETVNIKVNKQKDIDIKLNYSHD”, with “failed”. Then “MLLKRSLPKMRWKSWVKPWQQLDWPLFCLPVGVSIFGGLMILSTELKQPVTDWWWHWLIAGIGVFIALFLARCRYDNLLQWHWITYVLTNISLITVMAAGTSAKGAQRWLTIGGFNVQPSEFAKIGVIITLAALLHKHTATRIEDVFRALAITAIPWLLVFVQPDLATSLVFGAIVLGMLYWANANPGWLLLMISPIIAAILFTMSWPLSTPIILFKEIFITPFGVAWAIGMAILGWLTLPWRRFNMGTIGAFSLNLLGGELGIFAWNHVLKEYQKNRLTAFINPEQDPLGSGYHLIQSRIAIGAGEMWGWGLFKGPMTQLNFVPEQHTDFIFSAIGEEFGLFGCLIVLFVFCLICWRLLHVAQTAKDNFGSLLAIGVLSMIIFQLVVNVGMNVGLAPVAGIPLPWMSYGRSAMLTNFIALGIVESVANFRQRQKYYF”, with “failed”; and “MLLLWLVVLVIGAAYLTHRRLAPLQILGIVAAYVLLMGIFSSAPGWLLALIWVVLALKIALVALPQWRRKLFTAPVFRWFQRTLPPMSQTEREAIDAGTVWWDGELFSGRPDWRTLLAYPAPKLTEEEQAFIDGPTEALCAMVSDWQIGQDLDLPPEAWAHIKQHGFFALIIPKEYGGKGFSAYAHSQVAMKLATRSGDLASTVMVPNSLGPAELLLHYGTDEQRNRYLPRLARGEEIPCFALTGPLAGSDAGAMPDTGIICKGQWQGEEVIGLRLNWEKRYITLGPVATLLGLAFKAYDPDHLLGEQEELGISLALIPTDTPGVEIGKRHLPLGAAFMNGPNSGKDVFVPLDFLIGGQAMLGKGWMMLMNCLSVGRSISLPAVGTGAAKYTSLVTGQYANIREQFNVPLAAFEGIQESLARIGGNAWLMDSARLLTAKAVDLGEKPSVLSAILKYHLTERGRECIQHAMDVHGGKGIIMGPNNYLGRNWQGAPIFITVEGANILSRNLMIFGQGAIRCHPFVLKEMALAGREDHDQALKEFDDLLMKHILFAAGNAASTLVYGLGLGRFERVPGDALSQGYFRALNRQAAAFAMMADLSMMLLGGALKRRERLSARLGDVLSYLYLASAALKRYHDQGSPEYLQPLLRWAMEESLGQTERALDRLLDNFPNRFVGCALRVLVFPFGRRHKGPGDELDAEVAELIGRRKGDPALEELLAGCYRPQAEHDPVADLQRASDLLEDTAQLSKALYQAVKEGKVQPAPGQSGIDAAVKAGVLQPDDGQRLHEAEQARRKVIDVDAFDKAQLLAVPGKVR”, with “failed”; and “MLLNKYFLANRNINFIVMALLFSSSYISASSFISGPSAVYKYGLSFILLATIQIPTTLIVFIIVGQRLNRESKKINAINIIDYIRHRYESDFLALMSGFVLIFFSMFLISAQLIGGAKLIEVFWGIDYVVGLTFFAFLVFIYVFFGGFKAVAYTDLIQGFLMLVSSVILFSKMLDLGGGINNLFKTATSSLDKSLLLPSNADLKPQYIISFWILIGIGILGQPQIINNFIAFKDENAIKFSLPISTFIISFLIVLMHLIGFFAIILFPDLSPNDKVVLNVALKVLNPFSCFMFFIGLLSAIMSTVDSNLLLITSVLIKSIFIYKEDLKEDVKIGRIIMISNIFFILIILIFSLFPPNFLFFINIFAFGALEVSFFPIIVFGLYLNFVSKIAAFASMFLGLIFYLSILFFGLNIWFFHPVFPSFFVSIFTFLVVNFFCKKNSKVC”, with “failed”.

In the case of “MLLRKGTVYVLVIRADLVNAMVAHARRDHPDEACGVLAGPEGSDRPERHIPMTNAERSPTFYRLDSGEQLKVWRAMEDADEVPVVIYHSHTATEAYPSRTDVKLATEPDAHYVLVSTRDPHRHELRSYRIVDGAVTEEPVNVVEQYLEHHHHHH”, the protein production result is on record as “failed”.
